Like-named read-outs stand apart in the source and are kept apart here. Ends that are not written are not given here.
Key:
[1] = biological target: T1, tPA (Homo sapiens, UniProt P00750); assay: Effect on vasoactivity of tPA (PE-induced contraction of aorta rings); type: cell-based
Protocol: (§1) FIG. 2 is a graphical representation of the results obtained in experiments to study the effect of PAI-1 on the vasoactivity of tPA. The EC50 of PE was determined in the absence (Control) or presence of 1 nM tPA, 20 nM tPA, 1 nM tPA and an equimolar concentration of PAI-1, 20 nM tPA and an equimolar concentration of PAI-1, 1 nM tPA and 2 μM of SEQ ID NO:1 or 20 nM tPA and 2 μM of SEQ ID NO:1.
as §1, with “FIG. 3 is a” for “FIG. 2 is a”, “effect of RAP and anti-LRP antibodies on the” for “effect of PAI-1 on the”
(§2) FIG. 6 is a bar diagram describing the results of studies done on the effect of PAI-1 derived peptide on tPA vasoactivity. The constriction of aorta rings was induced by increasing the concentrations of phenylepbrine in the absence or presence of 1 nM tPA, 1 nM tPA and 1 OM SEQ ID NO:1, 10 mM tPA or 10 nM tPA and 1 OM of SEQ ID NO:1.
(§3) The effect of TNK-tPA on PE-induced contraction was compared with the effect of tPA, in the isolated aorta rings. The experimental procedure followed has been described earlier (Haj-Yehia A, Nassar T, Sachais B, Kuo A, Bdeir K., Al-Mehdi A-B, Mazar A, Cines D, Higazi A A-R. Urokinase-derived peptides regulate vascular smooth muscle contraction in vitro and in vivo. FASEB J 2000; 14:1411–1422.
In an attempt to understand the basis for the modification in the vasoactivity of TNK-tPA, the role of the PAI-1 docking site in the process was examined.
(§4) The effect of revertase and TNK-tPA on the PE induced vasocontraction was studied in presence or absence of the LRP antagonist (RAP) or anti LRP antibodies.
as §2, with “phenylephrine” for “phenylepbrine”, “OM,” for “OM SEQ ID NO:1,”, “nM” for “mM”, “OM.” for “OM of SEQ ID NO:1.”

[2] = biological target: TNK-tPA (Homo sapiens, UniProt P00750, H332A/K331A/N152Q/R333A/R334A/T138N); assay: Effect on vasoactivity of TNK-tPA (PE-induced contraction of aorta rings); type: cell-based
Protocol: as §1
The effect of TNK-tPA on PE-induced contraction was compared with the effect of tPA, in the isolated aorta rings.
PAI-1 interacts with tPA through independent sites; the catalytic site and a docking site, present in the amino acids […] to 299. The PAI-1 docking site is mutated in TNK-tPA. […] Madison E L, Goldsmith W. Gething M-J, H., Sambrook J F, Gerard R D. Restoration of serine protease-inhibitor interaction by protein engineering. Journal of Biological Chemistry. 1990; 265:21423–21426.
as §4

[3] = biological target: T2, uPA (Homo sapiens, UniProt P00749); assay: Effect on vasoactivity of uPA (PE-induced contraction of aorta rings); type: cell-based
Protocol: FIG. 5 is a bar diagram describing the results of experiments on the vasoactivity of uPA and tPA in the presence or absence of PAI-1, for example, the effect of 2 nM uPA or 1 nM tPA on phenylephrine induced vasoconstriction was determined in the presence or absence of equimolar concentrations of PAI-1.
FIG. 5 describes a bar diagram describing the results of experiments on the vasoactivity of uPA and tPA in the presence of absence of PAI-1, for example, the effect of 2 nM uPA or 1 nM tPA on phenylephrine induced vasoconstriction was determined in the presence or absence of equimolar concentrations of PAI-1.
as §2, with “phenylephrine” for “phenylepbrine”, “OM,” for “OM SEQ ID NO:1,”, “nM” for “mM”, “OM.” for “OM of SEQ ID NO:1.”

[4] = system: isolated rat aorta rings; assay: PE-induced contraction of isolated rat aorta rings; type: cell-based
Protocol: FIG. 1A is a diagram describing the results of experiments on the effect of tPA on PE-induced contraction of isolated rat aorta rings. Contraction of aortic rings was induced by increasing the concentrations of phenylephrine (PE), in the absence of tPA (full triangles) or in the presence of 1 nM (filled squares) or 20 nM tPA (empty squares).
FIG. 1B describes the results of experiments in which the contraction of aortic rings was induced in the absence of TNK-tPA (filled triangles), in the presence of 1 nM tPA (filled squares) or 20 nM tPA (empty squares).
FIG. 4 is a graph describing the effect of tPA on phenylepbrine-induced contraction of isolated rat aorta rings in vitro. The contraction of the aorta rings was induced by varying concentrations of phenylephrine in the absence of tPA (filled triangles), in the presence of 1 nM of TA (filled squares) or in the presence of 10 nM tPA (empty squares). The experiments were performed according to procedures described earlier by Haj-Yehia A et al., FASEB J, 2000, 14:1411–1422.
as §3
FIG. 4 describes a graph describing the effect of TA on phenylephrine-induced contraction of isolated rat aorta rings in vitro. The contraction of the aorta rings was induced by varying concentrations of phenylephrine in the absence of tPA (filled triangles), in the presence of 1 nM of tPA (filled squares) or in the presence of 10 nM TA (empty squares). The experiments were performed according to procedures described earlier by Haj-Yehia A et al., FASEB J, 2000, 14:1411–1422.

[5] = biological target: T1, tPA; assay: tPA mediated clot lysis / chromogenic assay of tPA activity; type: biochemical
Protocol: (§5) FIG. 7 is a bar diagram describing the results of experiments on the effect of PAI-1 derived peptide on tPA mediated clot lysis. The capacity of TA to induce clot lysis was determined in the presence and absence of 1 OM of SEQ ID NO:1. In these experiments, blood from volunteers was allowed to clot at room temperature for one hour, the blood clot was separated from the plasma, placed on absorbing paper to remove all the serum and cut into several pieces. The pieces were weighed, and placed in PBS buffer alone or containing 100 nM tPA, with or without 1 OM of SEQ ID NO:1. After incubation for 3 hours at room temperature, the thrombi are separated from the medium, dried and weighed.
as §5, with “of tPA” for “of TA”, “of 10 M.” for “of 1 OM of SEQ ID NO:1.”, “without 10M.” for “without 1 OM of SEQ ID NO:1.”, “weighed. […]” for “weighed.”

[6] = biological target: scuPA (Homo sapiens, UniProt P00749); assay: Effect on fibrinolytic activity of scuPA (blood clot lysis); type: biochemical
[7] = biological target: T2, uPA; assay: Effect on fibrinolytic activity of uPA; type: biochemical
[8] = in vivo; cited from earlier work
[9] = in vivo; cited from earlier work; remark: listed apart in the source

T1 sequence (P00750 36-562): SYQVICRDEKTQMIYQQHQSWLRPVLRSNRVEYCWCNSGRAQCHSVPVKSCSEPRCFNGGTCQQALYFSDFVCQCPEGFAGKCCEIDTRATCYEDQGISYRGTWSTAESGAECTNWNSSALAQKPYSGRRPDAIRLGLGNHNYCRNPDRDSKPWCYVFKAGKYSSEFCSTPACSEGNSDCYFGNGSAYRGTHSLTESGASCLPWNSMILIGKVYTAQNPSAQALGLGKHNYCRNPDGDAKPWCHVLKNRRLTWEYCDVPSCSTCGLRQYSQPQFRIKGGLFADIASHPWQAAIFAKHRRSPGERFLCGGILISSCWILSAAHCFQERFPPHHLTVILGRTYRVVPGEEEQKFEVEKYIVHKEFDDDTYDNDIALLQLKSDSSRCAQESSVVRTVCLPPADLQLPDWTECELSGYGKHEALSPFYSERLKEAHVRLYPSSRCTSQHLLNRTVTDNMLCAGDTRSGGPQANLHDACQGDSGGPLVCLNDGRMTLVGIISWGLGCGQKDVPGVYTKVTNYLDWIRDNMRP
Chain of TNK-tPA (P00750 36-562 T138N/N152Q/K331A/H332A/R333A/R334A): as the sequence (P00750 36-562) above, with T103N, N117Q, K296A, H297A, R298A, R299A counted along it

## rRAP: LRP antagonist, recombinant receptor associated protein [reference compound]
[1]
  effect on vasoactive effect of tPA: totally abolished
[2]; anti-LRP antibodies or LRP antagonist
  effect on vasoactive effect of TNK-tPA: totally abolished

## EEIIMD [SEQ ID NO:1, six amino acid peptide corresponding to residues 350 to 355 of PAI-1]
[1]; 2 μM peptide
  effect on vasoactive effects of rtPA: abolished
[1]; concentration not given
  effect on enhancing effect of tPA on phenylephrine-induced vasoconstriction in aorta ring cultures: abolishes
[1]; peptide at 10M (so in the source)
  effect on enhancing effect of tPA on phenylephrine induced vasoconstriction: abolished
[2]; 2 μM peptide
  effect on vasoactive effect of TNK-tPA: unaffected
[2]; 10 μM peptide
  effect on vasoactive effect of TNK-tPA: abolished
[2]; 5 molar concentration of the peptide
  effect on vasoactive effect of TNK-tPA: abolished
[2]; equimolar concentration of peptide
  effect on vasoactive effect of TNK-tPA: unaffected
[3]; concentration not given
  effect on enhancing effect of uPA on phenylephrine-induced vasoconstriction: abrogates
[3]; same as on tPA, peptide at 10M (so in the source)
  effect on enhancing effect of uPA on phenylephrine induced vasoconstriction: the same effect
[4]; without tPA or uPA
  effect alone on contraction of aorta rings: Neither PAI-1 nor alone had any effect
[5]
  effect on fibrinolytic activity of tPA: no effect
[5]; 100 nM tPA, peptide 10M (so in the source), 3 hours, room temperature
  effect on catalytic activity of tPA (clot lysis, FIG. 7): no significant effect
[6]
  effect on fibrinolytic activity of scuPA: no effect
[6]; listed as 6 amino acid peptide
  effect on fibrinolytic activity of scuPA: stimulates synergistically
[7]
  effect on fibrinolytic activity of uPA: no effect

## tPA: tissue-type plasminogen activator, single-chain serine protease; rtPA is the recombinant form
[8]
  non-cerebral bleeding episodes: 5.94%
[4]
  affinity of first (fast) epitope, inhibits PE induced vasoconstriction: around 1 nM
  affinity of second epitope, stimulates PE-induced vasoconstriction: around 20 nM
[4]; 1 nM
  effect on PE-induced vasoconstriction: inhibited
[4]; 1 nM, listed as TA
  effect on PE-induced vasoconstriction: inhibits
[4]; 20 nM
  effect on PE-induced vasoconstriction: stimulated
[4]; FIG. 4
  capacity to induce vasodilatation: has the capacity to induce vasodilatation
[4]; increased tPA concentrations (printed 1 nM; FIG. 4 uses 10 nM)
  effect on phenylephrine-induced vasoconstriction: stimulated
[9]
  incidence of subsequent symptomatic intracerebral hemorrhage: approximately six
  patients with symptomatic intracerebral hemorrhage who die: approximately fifty

## CNC[C@H](O)c1cccc(O)c1 [PE, phenylephrine, reference compound]
[4]; Rattus norvegicus, control, before addition of plasminogen activator, read-out: EC50 of PE-induced constriction
  EC50: 34 nM
